Measured values taken from the nanobody polyreactivity screen of Harvey et al. (2022).

Assay: yeast display, Sf9 membrane polyspecificity reagent, FACS + sequencing; frameworks hold sequencing errors
Method in brief: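 After 36–48 hours of galactose induction, yeast (Saccharomyces cerevisiae BJ5465) displaying a synthetic nanobody library were stained at 4 °C for 1 hour with 10% biotinylated, detergent-solubilized Sf9 membrane reagent. Streptavidin microbeads enriched the stained cells before FACS sorting into low and high (top ~1%) gates on anti-HA and streptavidin fluorescence. Each clone's polyreactivity label reflects its gate of origin.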

Sequence	polyreactivity (PSR sort gate)
QVQLVESGGGLVQAGGSLRLSCAASGSTFAGNAMGWYRQAHGKERELVAALDSSTGSTYYAYSVKGRFTISRDNAKNTVYLQMNSVKPEDTAVYYWNKTSFLVKLDYWGQGTQVTVSS	low polyreactivity
QVQLVESGGGLVQAGGSLRLSCAASGSTFAGNTMGWSRQAPGKERELVAAITWNGGRTRYADSVKGRFTISRDNAKNTVYLQMNSLKPEDTAVYYCNAGPWYENMDYWGQGTQVTVSS	high polyreactivity
QVQLVESGGGLVQAGGSLRLSCAASGSTFAGYAMGWYRQAPGKERELVAAISKSGGSTYYADSVKGRFTISRDNAKNTVYLQMNSLKPEDTAVYYCAARGGLPDGQGYYYWGQGTQVTVSS	high polyreactivity
QVQLVESGGGLVQAGGSLRLSCAASGSTFAGYAMGWYRQAPGKERELVAAISRRGGSTYYADSVKGRFTISRDYAKNTVYLQMNRLKPEDTAVYYCNRDKYLRDPDYDYWGQGSQVTVSS	low polyreactivity
QVQLVESGGGLVQAGGSLRLSCAASGSTFAIYAMGWYRPAPGKERELVAAITLRTDSTYYADSVKGRFTISRDNAKNTVYLQMNSLKPEDTAVYYCNTVAYMRRFDKWGMNYWGQGTQVTVSS	low polyreactivity
QVQLVESGGGLVQAGGSLRLSCAASGSTFAIYAMGWYRQAPGKERELVAAISKSGGSTYYADSVKGRFTISRDNAKNTVYLQMNSLKPEDTAVYYCARRQYAFGPYGFYYWGQGTQVTVSS	high polyreactivity
QVQLVESGGGLVQAGGSLRLSCAASGSTFAIYAMGWYRQAPGKERELVASISGGSTNYADSVKGRFTISRDNAKNTVYLQMNSLKPEDTAVYYCAARGALHHWYSYDYWGQGTQVTVSS	low polyreactivity
QVQLVESGGGLVQAGGSLRLSCAASGSTFAKNAMGVYRQAPGKERELVAAISRGGNTYYADSVKGRFTISRDNAKITVYLLMNSLKPEDTAVYYCAARYLFRSLNMDYWGQVTQVTVSS	high polyreactivity
QVQLVESGGGLVQAGGSLRLSCAASGSTFAKYAMGWSRQAPGKEREFVAAITASGGRTFYADSVKGRFTISRDNAKNTVYLQMNSLKPEDSAVYYCAADVVPTWYGYNYDYWGQGTQVTVSS	high polyreactivity
QVQLVESGGGLVQAGGSLRLSCAASGSTFALNAMGWYRQAPGKERELVAAISGRGGSTYYADSVKGRFTISRDNAKNTVYLQMNSLKPEDTAVYYCAATSRVYVRGSYWKYGYWGQGTQVTVSS	high polyreactivity
QVQLVESGGGLVQAGGSLRLSCAASGSTFAPNAMGWYRQAPGKEKEIVSGITWGDSTYYADSVKGRFTISRDNAKNTVYLQMNSLKPEDTAVYYCAVRWVWNPWGIQGDWAVDYDYWGQGTQVTVSS	low polyreactivity
QVQLVESGGGLVQAGGSLRLSCAASGSTFAPNAMGWYRQAPGKERELVAAISRGGSTYYADSVKGRFTISRDNAKNTVYLQMNSLKPEDTAVYYCAVYKFHYGYVWYPYDYWGQGTQVTVSS	high polyreactivity
QVQLVESGGGLVQAGGSLRLSCAASGSTFAPYAMGWYRQAPGKERELVAAITWRGGSTYYADSVKGRFTISRDNAKYTVYLQMNSLKPEDTAVYYCNADGYVPDYEYWGQGTQVTVSS	high polyreactivity
QVQLVESGGGLVQAGGSLRLSCAASGSTFAQDALGWYRQAPGKERELVATISASGGTTYYADSVKGRFSISRDNAKNPVYLQMNSLKPEDTAVYYCAKRRVWWPAHRSYLYASEFGYWGQGTQVTVSS	low polyreactivity
QVQLVESGGGLVQAGGSLRLSCAASGSTFAQNAMGWYRQAPGKEREFVAAITGTVGSTYYADSVKGRFTISRDNAKNTVYLQMNSLKPEDTAVHYCAVVHVFYAVSYFSFYTYDYWGQGTQVTVSS	low polyreactivity
QVQLVESGGGLVQAGGSLRLSCAASGSTFAQNTKGWYRQAPGKERELVATISDGGGSTYYADSVKGRFTISRDNAKNTVYLQMNSLKPEDTAVYYCNTDRFWPSDYWGQGTQVTVSS	low polyreactivity
QVQLVESGGGLVQAGGSLRLSCAASGSTFAQNTMGWYRQAPGKERELVATISDGGGSTYYADSVKGRFTISRDNAKNTVYLQMNSLKPDDTAVYYCNTDRFWPSDYWGQGTQVTVSS	low polyreactivity
QVQLVESGGGLVQAGGSLRLSCAASGSTFAQYVMGWYRQAPWKERELFAAISRGGGRTYYADSVKGRFTISRDNAKNTVYLQMNSLKPEDTAVYYCAAETLGVYDYESYNYYWGQGTQVTVSS	high polyreactivity
QVQLVESGGGLVQAGGSLRLSCAASGSTFARNAMGRNRQAPGKERELVARITWSGSGTFYADPVKGRFTISRDNAKNTVYLQMYCLKPQDTAVYYCASEGPSAGFDYWGQGTQVTVSS	high polyreactivity
QVQLVESGGGLVQAGGSLRLSCAASGSTFARNTMGWYRHAPGKERELVAVITRGDSTYYADSVKGRFTISRDNAKNTVYLQMNSLKPEDTAGYYCNAYFRYAYPSKMDYWVQGTQVTVSS	low polyreactivity
QVQLVESGGGLVQAGGSLRLSCAASGSTFARYAMGWYRQAPGKERELVASITTGGRTYYADSVKGRFTITRDNAKYTVYLQMNSLKPEDTPVYFCNVLRYRGYDYWGQGTQVTVSS	high polyreactivity
QVQLVESGGGLVQAGGSLRLSCAASGSTFARYAMGWYRQAPGKERELVAVITQSGSSTYYADSVKGRFTISRDNAKNTVYLQMNSLKPEDTAVYYCAAVGIDYTRYGRYWYSYDYWGQGTQVTVSS	high polyreactivity

Sequence	polyreactivity (PSR sort gate)
QVQLVESGGGLVQAGGSLRLSCAASGSTFASNAMGWYRQAPGKERELVAAIDWTGASTYYADSVKGRFTISRDNAKNTVYLQMNSLKPEDTAVYYCNADEYWNSRTQGYNYWGQGTQVTVSS	low polyreactivity
QVQLVESGGGLVQAGGSLRLSCAASGSTFASNMGWYRQAPGKERELVAGIRSSGSTYYADSVKGRFTISRDNAKNTVYLQMNSLKPEDTAVYSCNKGDYRTYPYDYWGQGTQVTVSS	low polyreactivity
QVQLVESGGGLVQAGGSLRLSCAASGSTFASNTMGWYRQAPGKERELVAAITQSGGTTYYADSVKGRFTISRDNAKNTVYLQMNSLKPEDTAVYYCAADATFIIRYLSRSDYWGQGTQVTVSS	low polyreactivity
QVQLVESGGGLVQAGGSLRLSCAASGSTFASNVMGWYRQAPGKERELVAAISRSGGNTYYADSVKGRFTISRDNAKNSVYLQMNSLKPEDTAVYYCAKYPFTRISYDYWGQGTQVTVSS	high polyreactivity
QVQLVESGGGLVQAGGSLRLSCAASGSTFASYAMGWYRQAPGKEREFVAAISRSGGSTYYADSVKGRFTISRDNAKNTVYLQMTSLKPEDTAVYYCAARSPSADEYYYWGQGTQVTVSS	low polyreactivity
QVQLVESGGGLVQAGGSLRLSCAASGSTFATYAMGWYRQAPGKERELVAVISRSGGSTYYADSVKGRFTISRDNAKNTVYLQMNSLKPEDTAVYYCNVPITPGRVKYDYWGQGTQVTVSS	high polyreactivity
QVQLVESGGGLVQAGGSLRLSCAASGSTFAVNAMGWYRQAPGKERELVAAISGSGGRTYYADSVKGRFTISRDNAKNTVYLQMNSLKPEDTAVYYCATELRASYRSSGAYHYDYWGQGTQVTVSS	low polyreactivity
QVQLVESGGGLVQAGGSLRLSCAASGSTFAVNAMGWYRQAPGKERELVAVITGNGANTYYADSVKGRFTISRDNAKNTVYLQMNSLKPEDTAVYYCNARLFSQSHYYYWGQGTQVTVSS	high polyreactivity
QVQLVESGGGLVQAGGSLRLSCAASGSTFAWYDMGWYRQAPGKEREFVAAIDYGGGSTYADSVKGRFTISRDNAKNTVYLQMNSLKPEDTAVYYCNADNWVYLYDYWGQGTQVTVSS	low polyreactivity
QVQLVESGGGLVQAGGSLRLSCAASGSTFAYNAKGWYRQAPGKERELTNYADSVKGRFTISRDNAKNTVYLQMNSLKPEDNAVYYCIAQIDFGVPDKRAWGYDYWGQGTQVTVSS	low polyreactivity
QVQLVESGGGLVQAGGSLRLSCAASGSTFAYNAMGWYRQAPGKERELVATMSYSGGTTDYADSVKGRFTISRDNAKNTVYLQMNSLKPEDTAVYYCNADHLTWGGWGIRKYDYWGQGTQVTVSS	high polyreactivity
QVQLVESGGGLVQAGGSLRLSCAASGSTFAYNAMGWYRQAPGNERELVAAISFTGDSTYYADSVKGRFTISRDNAKNTVYLQMNSLKPEDTRTSPVLSYDYWGQGTLVTVSS	low polyreactivity
QVQLVESGGGLVQAGGSLRLSCAASGSTFAYNDMGWYRLAPGKERELVADIRSGGNTNYADSVKGRFTISRDNAKNTVYLQMNSLKPEDTAVYYCATDGYRIDVYHPDYRYDYWGQGTQVTVSS	low polyreactivity
QVQLVESGGGLVQAGGSLRLSCAASGSTFAYYAMGWYRQAPGKERELVASISWRGGSTYYADSVKGRFTNSRDNAKNTVYLQMNSLKPEDTAVYYCAAGRFYIWSRSQEYDYWGQGTQVTVSS	low polyreactivity
QVQLVESGGGLVQAGGSLRLSCAASGSTFAYYDMGRYRPAPGKERELVAAITIDGRTSYADSVKGRFTISRDNAMNTVYLQMNSLKPEDTAVYYCNTEIRLSKYDYWGQGTQVTVSS	low polyreactivity
QVQLVESGGGLVQAGGSLRLSCAASGSTFCRNAMGWYRQAPGKERELVAAISRRGGSTYYADSVKGRFTISRDNAKNTVYLQMTSLKPEDTAVYYCYRDSSYKHNYDYWAQGTQVTVSS	high polyreactivity
QVQLVESGGGLVQAGGSLRLSCAASGSTFDANAMGWYRQAPGKERELVARMSRSTGSTYYADSVKGRFTISRDTAMNSVYLQLNSLKPVDTAVYYCAKVSRASNKYGYWGQGTQVTVSS	high polyreactivity
QVQLVESGGGLVQAGGSLRLSCAASGSTFDAYAMGWYIQAPGKERELVAAITNGGSTNYADSVKGRFTISRDNAKNTVYLQMNSLQPEDTAVYYCNAQHRTVRGIFGRFNYWGQGTQVTVSS	low polyreactivity
QVQLVESGGGLVQAGGSLRLSCAASGSTFDAYAMGWYRQAPGKERELVAAITNAGSTNYADSVKGRFTISRDNAKNTVYLQMNSLKPEDTAVYYCATDWYHRYLDGRYDYWGQGTQVTVSS	low polyreactivity
QVQLVESGGGLVQAGGSLRLSCAASGSTFDDNAMGGYREAPRKERELVAGISDGDDSTNYADSVKGRFTISRDNAKNTVYLQMNSLTPEDTEVYFCNARYVRTYGVRFGYDYWGQGTQVTVSS	low polyreactivity
QVQLVESGGGLVQAGGSLRLSCAASGSTFDDNAMGWYRQAPGKDRELVAGISTNGGSTSYADSVKGRFTISRDNAKNTVYLPMNSLKPEDTAVYYCAKGLYVQFDYWGQGTQVTVSS	low polyreactivity
